Assay results from the supplement of paper PMC10126150.
± gives the standard deviation of the averaged measurements.

Tested on: ATP
Experiment: switch fluorescence ratio, 500 uM ATP over buffer (Cy3 cluster intensity, sum of 5 cycles each) (fold (ratio)); higher = stronger signal-on switching upon ATP binding; sequences stand for … in TCGTCGGCAGCGTCAGATGTGTATAAGAGACAGTTTTTTTTTTTTTTTTTTTTTTTTT…TC
Settings: aptamer strand: ATP DNA aptamer (quencher-CACCTGGGGGAGTATTGCGGAGGAAGG + anchor), 100 nM annealed; ATP concentration: 500 uM
Method in brief: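 Five buffer/ATP imaging cycles were run on Cy3-labelled switching-strand clusters on a modified Illumina MiSeq flow-cell, with NaOH stripping and re-annealing between cycles. In each cycle, clusters annealed to 100 nM quencher-labelled ATP aptamer were imaged in selection buffer, then after 15 min with 500 uM ATP at 22 °C. Per cluster, the fluorescence ratio is summed target-cycle over summed buffer-cycle Cy3 intensity, averaged per switch-domain sequence. Only clusters within 100-1000 RFU were kept.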
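Also: ATP exposure 15 min at 22 °C before imaging.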

Sequence | switch fluorescence ratio
TGTATGTCGG | 0.959 ± 0.03
GACTTTTACC | 1.07 ± 0.027
TATTCACATT | 0.994 ± 0.024
TTGCGACACC | 1.06 ± 0.042
GGCGGTAAAG | 0.992 ± 0.037
CACCCCGGTT | 1.12 ± 0.051
CGTACCAACC | 1.2 ± 0.029
ACGCCCTCCC | 2.02 ± 1.2
GGTAGGAGAT | 1.05 ± 0.036
CAAAAAGTAG | 1.014 ± 0.0062
TTAAGTTTGT | 0.994 ± 0.022
GGGAAATATG | 1.01 ± 0.012
GCTCTTTAGA | 0.962 ± 0.018
AATGATAGTA | 1.006 ± 0.0034
TTGGGAGAAT | 1.02 ± 0.09
CGAGTTAGGG | 0.9906 ± 0.0021
AGGTCGGGGG | 0.988 ± 0.029
TTTATTGCGG | 1.01 ± 0.043
TTTTTGAACT | 1.01 ± 0.037
CATTTATGCG | 0.989 ± 0.018
TTGGCGGGAT | 1.03 ± 0.017
GCATTCTCGT | 1.029 ± 0.0021
ATTTTTTAGT | 0.983 ± 0.013
TGGCCGGGCG | 1.011 ± 0.0026
TACTTTTTGG | 0.9872 ± 0.0092

Sequence | switch fluorescence ratio
GAATTATGTT | 1.01 ± 0.004
GAACTTAGAG | 1.02 ± 0.03
GTGATACCGT | 0.99 ± 0.0087
TTGAGCTTGT | 1.02 ± 0.027
GATTGTAGCT | 0.987 ± 0.023
GAGGGATTTG | 1 ± 0.03
ATCTAGGGGG | 1.05 ± 0.017
CGTTATTTAT | 0.9985 ± 0.0089
AGGTTGTGGG | 1.02 ± 0.022
ACATTTAGGC | 1.048 ± 0.0088
AAAAAGGTGG | 1.06 ± 0.047
CTATATTAGG | 0.997 ± 0.032
ATGGGACGAT | 0.995 ± 0.026
AACAGTTGAA | 1.0083 ± 0.00099
CCATTTGCGC | 1.02 ± 0.034
CTGTATATAG | 1.017 ± 0.0083
ATAAAGGTCT | 0.984 ± 0.0053
CCCTTGTCCG | 1.05 ± 0.037
TTTACGGGGC | 1 ± 0.017
TGATACTCGC | 1.18 ± 0.12
TCATGAATTT | 0.9885 ± 0.0089
GTTAATCTTA | 0.9873 ± 0.0036
ATGGATAATG | 0.977 ± 0.054
GCGATTGGGG | 0.9705 ± 0.0044
GTTTTAAACA | 1 ± 0.034

Sequence | switch fluorescence ratio
TTTTTATGGG | 1.03 ± 0.077
ATGGGGGCCG | 1.01 ± 0.039
CCATATGT | 0.985 ± 0.028
TCTGTTAATT | 1.01 ± 0.014
CGATTCTGAG | 1 ± 0.024
TTTTGGTGGA | 0.988 ± 0.014
AATTTTTAGA | 0.987 ± 0.034
ACTACATTGG | 1.033 ± 0.0065
AGAATGTTTC | 0.973 ± 0.021
ATTTATTGGC | 1.02 ± 0.042
ATAGGGGAGT | 0.993 ± 0.03
TCCTTTATTG | 1.01 ± 0.021
GCAGGGATGG | 0.985 ± 0.035
TTTTATGGGG | 0.968 ± 0.031
GGGTATACCG | 1.018 ± 0.0017
TGGCTAAAAT | 0.998 ± 0.023
TGGGTTCGCG | 0.988 ± 0.021
TTGGGGCACG | 0.99 ± 0.02
TACCGGATTT | 0.979 ± 0.0026
GATGGTTGGA | 0.9825 ± 0.0056
ATTGAAGGAG | 0.994 ± 0.023
CGGGACGGCA | 1.01 ± 0.017
GATGTAGTTT | 0.993 ± 0.027
ACGGACAGTT | 1.13 ± 0.029
GATGTACCGC | 1.12 ± 0.042

Sequence | switch fluorescence ratio
AAAGTGGGGT | 1 ± 0.018
CAGCATCCTT | 1.02 ± 0.043
ATAGGGTCCG | 0.977 ± 0.024
AAGAGGCGCT | 0.995 ± 0.05
GGCAGATGAA | 1.03 ± 0.011
TTATCGTTGG | 1 ± 0.031
GAGGTACGGG | 0.98966 ± 0.00039
TCGTTCGGCT | 1.01 ± 0.044
GAGGGGACGG | 0.996 ± 0.015
ATCGTGCACA | 0.973 ± 0.036
TTAGAGAACC | 1.01 ± 0.016
TTTTTTGCTC | 1.02 ± 0.033
TCAATCATAT | 0.982 ± 0.033
AAGCGGGGAC | 1.07 ± 0.013
TAACGTATGG | 1.03 ± 0.021
GCTGCACGGG | 1.01 ± 0.03
ATCACATTCG | 1.02 ± 0.043
CGAAGCGTCA | 1.081 ± 0.0014
TCATTGATTG | 0.999 ± 0.022
GTTGGATAGG | 1.01 ± 0.016
AATAGGGGGA | 1.01 ± 0.034
TTTAAGCTGT | 0.978 ± 0.049
CCAAGCATAG | 3.63 ± 0.47
AGAAATTTGA | 0.98 ± 0.013
CGCGGAGGGT | 0.967 ± 0.016

Sequence | switch fluorescence ratio
CGATATTGCC | 0.9909 ± 0.0097
CAACATGTTT | 1.02 ± 0.03
TTTATGAGT | 0.987 ± 0.022
GGGGATATTT | 1 ± 0.014
GGAATTCGGG | 1.01 ± 0.025
TTGCTTTTGT | 1.02 ± 0.025
ATTAACTTTA | 1.01 ± 0.035
TTGTTCGCCT | 1.02 ± 0.011
ATGGGAAACT | 1.012 ± 0.0074
TCACGTTATG | 1.11 ± 0.026
ACATTTTGTT | 0.972 ± 0.051
ACTATTAAT | 1.024 ± 0.0063
TTCGTGGTTG | 0.967 ± 0.034
AGCTGGGGGA | 1.05 ± 0.015
TATCTGTTTC | 1.01 ± 0.016
GACTAGGAAG | 0.994 ± 0.022
GATTTATAGG | 0.972 ± 0.052
TAAGCATGGA | 1.04 ± 0.013
ATTATTCACC | 1.01 ± 0.02
TCGCTGCTTG | 1.065 ± 0.0074
GCTGGGTTGG | 1 ± 0.026
GGGGTTCAAT | 0.976 ± 0.044
TATAAATGTG | 0.978 ± 0.027
CCGGTGGCTG | 1 ± 0.033
GCCCGTCCTG | 1.04 ± 0.015

Sequence | switch fluorescence ratio
CCTGAAGTTG | 1.18 ± 0.21
TTTAGTATGT | 1.013 ± 0.0025
AAAGTTTGG | 0.977 ± 0.017
TAGAAAGTTG | 0.953 ± 0.083
CAAAGCTTGA | 1.01 ± 0.036
TCCCGGGGGG | 1.14 ± 0.26
ATGGTGGAGG | 1.01 ± 0.024
ACACGGTGGG | 0.975 ± 0.054
GGACTGGCTA | 1.02 ± 0.035
TAATAGTGAT | 0.983 ± 0.018
AGCTGTTTC | 1 ± 0.018
ACTTTCCGTT | 1.1 ± 0.05
TTCTGGCTAT | 1.01 ± 0.039
TTGGCGCCGT | 0.998 ± 0.044
TGGGATCGCT | 1.038 ± 0.0056
GGGAGTAGCA | 1.02 ± 0.026
GGGTTGGGCC | 0.989 ± 0.014
TTTCGGAGCC | 1.16 ± 0.24
GCTGGGGATT | 0.987 ± 0.02
TTCAGAAAGG | 1 ± 0.023
TAACTAAAGG | 0.9971 ± 0.0099
GGGCGGTTTG | 0.971 ± 0.046
TTTAGCGACG | 1.069 ± 0.0098
GAGTTGGGGG | 1.02 ± 0.012
TATCTCTACT | 1.03 ± 0.017

Sequence | switch fluorescence ratio
AATAAATTTA | 1 ± 0.016
GGTGTTGCGG | 0.98 ± 0.038
ACTGTTAATG | 1.01 ± 0.026
CAAGAAAAGT | 0.978 ± 0.048
TCGAATTTGT | 0.99 ± 0.03
TGACGTTTTG | 0.9792 ± 0.0046
GTTAACTAAT | 1.57 ± 0.85
ACGTTAAAAT | 1.05 ± 0.021
GAGACCGTGT | 1.01 ± 0.052
CGAGCCTGGT | 1.02 ± 0.035
CACGGTGGGT | 0.9898 ± 0.0079
TTTTGGTACC | 1.02 ± 0.015
ATGTTTGTAG | 0.979 ± 0.045
GGTAATATTT | 0.998 ± 0.031
ACTTAAAGTC | 0.973 ± 0.029
TGTTTTTTGC | 0.995 ± 0.056
GCAAGTTGGT | 1 ± 0.017
TAAATGTTAC | 1.0644 ± 0.0005
TTTCTTGCGG | 1.012 ± 0.0019
TGTTTGGCGG | 0.966 ± 0.02
GGTCACGGGT | 0.981 ± 0.031
GCCAATGGGG | 0.989 ± 0.026
CAAAAAGGCG | 1.03 ± 0.054
GGTTTGGGCT | 0.983 ± 0.051
ACGGTGATAT | 1.03 ± 0.028

Sequence | switch fluorescence ratio
TGAGGGCCGA | 1.02 ± 0.13
CGGGGTCTGA | 0.953 ± 0.028
TACACTGAAA | 1.08 ± 0.026
CTTTACACAG | 1.0006 ± 0.00047
TTTTATATAA | 1.02 ± 0.039
CATGAGAGGT | 1 ± 0.018
GGGGTCTTGG | 1.03 ± 0.038
TTGTGCAAAT | 1.009 ± 0.006
CTTGGTGTAT | 1.03 ± 0.086
GGTCACAAGA | 1 ± 0.032
GTAATAGAGG | 0.9774 ± 0.0096
CGTACCTGCG | 1.06 ± 0.042
TTGCAATTGG | 2.56 ± 2
AGGGGCTATA | 0.9703 ± 0.0061
GCTGAAGTTT | 0.979 ± 0.038
GTTTTTTCAT | 1.02 ± 0.023
TTCGATGTGG | 1.01 ± 0.018
CGTATTTCTG | 0.938 ± 0.072
GGTTTAAAGA | 1 ± 0.038
AACTCATATT | 0.959 ± 0.013
TTGTTTTTGA | 1.05 ± 0.067
ATTTAATGGG | 0.99 ± 0.035
GCGTACAAGA | 1.04 ± 0.061
GGTGGTTGGG | 1.01 ± 0.038
TTTTTATAT | 0.983 ± 0.031
